Like-named read-outs stand apart in the source and are kept apart here. Where a SMILES comes first, the peptide text is derived from it. Bridges are numbered along the chain shown (N, C = ends). Roman numbers before positions name the chains, in order. Where no end group is shown, it is not given here. [ ]: non-standard residue; d: D form. βDpr = 2,3-diaminopropanoic acid whose beta-amino group bears the -CH2CO- link to the S of (NMe)hCys; GlyMeDOTA = DOTA chelator on the lysine side chain; Tpi = O=C(O)[C@@H]1Cc2c([nH]c3ccccc23)CN1; βAla(cyclopropyl) = beta-Ala(cyclopropyl); Phe(4-NH2) = Nc1ccc(C[C@H](N)C(=O)O)cc1; 1Nal = N[C@@H](Cc1cccc2ccccc12)C(=O)O; NMeF = CN[C@@H](Cc1ccccc1)C(=O)O; NMehCys = CN[C@@H](CCS)C(=O)O; Thz = O=C(O)[C@@H]1CSCN1; Dap = NC[C@H](N)C(=O)O
Legend:
[1] = target: SSTR2 (Homo sapiens, UniProt P30874); assay: Radioligand binding assay on membranes of CHO-K1 cells expressing SSTR2; conditions: membranes from CHO-K1 cells stably expressing cloned somatostatin receptor 2
Description: (§1) Radiolabeling binding assays were carried out as described in the prior art like, e.g. in Gazal S. et al (2002) J. Med. Chem. 45: 1665-1671. The radioligand binding assays were carried out on membranes prepared from CHO-K1 cells stably expressing individually cloned somatostatin receptors 2 or 5 (SSTR2 or SSTR5). Cells were grown for 2 days for almost confluence and were washed and scraped into 50 mM ice-cold Tris-HCl, pH 7.8, containing 1 mM EGTA, 5 mM MgCl2, […], 0.1 mM PMSF, and 0.5 mg/mL aprotinin (buffer A) and were centrifuged at 10,000 rpm for 10 min at 4° C. (in Sorvall RC 26 Plus ultracentrifuge, rotor SS-34). The pellet was resuspended in buffer A and homogenized with a Polytron PT 1200 homogenizer (Kinematica AG, Switzerland) (setting 2, 3 strokes 10 s each). The homogenate was then centrifuged at 20 000 rpm for 20 min at 4° C. The pellet was resuspended in buffer A and homogenized using the Polytron homogenizer (setting 2, 3 strokes 5 s each). The protein content was determined by Bradford, and the membrane preparation was diluted in buffer A containing 1 mg/mL bovine serum albumin (BSA) to a final 0.2 or 0.4 mg/mL membrane protein (depending on the specific somatostatin receptor used).
(§2) The radioligand binding assay was performed in 96 well microtiter plates (Maxisorp plates, Nunc, Denmark). Cell membranes ([…] protein) were incubated with the various cyclized peptides indicated in Table 1 & 2, which comprised a lanthanide chelation unit, in a final volume of 250 μL, for 45 min. at room temperature in the presence or absence of competing peptides. Nonspecific binding was defined as the radioactivity remaining bound in the presence of […] somatostatin. At the end of the binding, reaction free radioligand was separated from bound Ligand by rapid filtration through UniFilter GF/C plates preincubated in a solution of 5 g/L polyethyleneimine and 1 g/L BSA. The filtration was performed in Filter-Mate Cell Harvester (Packard Instrument Company, U.S.A.). After filtration, the filters were washed several times with cold buffer A containing 1 mg/mL BSA and allowed to dry overnight at room temperature. Then, bound radioactivity was counted. The binding assays were performed in triplicate wells. Data from radioligand binding were used to generate inhibition curves, and IC50 values were determined for each of the tested peptides. The saturation binding data were analyzed by the method of Scatchard, and IC50 values are expressed as mean±SEM (standard error of the mean).

[2] = target: SSTR5 (Homo sapiens, UniProt P35346); assay: Radioligand binding assay on membranes of CHO-K1 cells expressing SSTR5; conditions: for IC50: membranes from CHO-K1 cells stably expressing cloned somatostatin receptor 5; for Ratio 2/5 in %: ratio of IC50 SSTR2 / IC50 SSTR5 in %
Description: as §1, §2

[3] = target: T1, somatostatin receptor 2 (UniProt P30874 1-369, limits assumed); assay: radioligand competition binding, membranes of CHO-K1 cells expressing SSTR2
T1 construct: whole, on cells; Assayed as membrane preparation of CHO-K1 cells stably expressing the cloned receptor; also called SSTR2; somatostatin receptor subtype 2

[4] = target: T2, somatostatin receptor 5 (UniProt P35346 1-364, limits assumed); assay: ratio of IC50 on SSTR2 to IC50 on SSTR5 (reference SSTR2), radioligand competition binding on CHO-K1 membranes
T2 construct: whole, on cells; Assayed as membrane preparation of CHO-K1 cells stably expressing the cloned receptor; also called SSTR5; somatostatin receptor subtype 5

[5] = target: T2, somatostatin receptor 5; assay: radioligand competition binding, membranes of CHO-K1 cells expressing SSTR5
[6] = target: T2, somatostatin receptor 5; assay: as above; remark: listed apart in the source
[7] = target: T1, somatostatin receptor 2; assay: radioligand competition binding, membranes of CHO-K1 cells expressing SSTR2; remark: listed apart in the source
[8] = target: T2, somatostatin receptor 5; assay: ratio of IC50 on SSTR2 to IC50 on SSTR5 (reference SSTR2), radioligand competition binding on CHO-K1 membranes; remark: listed apart in the source

Chain of SSTR2 (P30874 whole entry): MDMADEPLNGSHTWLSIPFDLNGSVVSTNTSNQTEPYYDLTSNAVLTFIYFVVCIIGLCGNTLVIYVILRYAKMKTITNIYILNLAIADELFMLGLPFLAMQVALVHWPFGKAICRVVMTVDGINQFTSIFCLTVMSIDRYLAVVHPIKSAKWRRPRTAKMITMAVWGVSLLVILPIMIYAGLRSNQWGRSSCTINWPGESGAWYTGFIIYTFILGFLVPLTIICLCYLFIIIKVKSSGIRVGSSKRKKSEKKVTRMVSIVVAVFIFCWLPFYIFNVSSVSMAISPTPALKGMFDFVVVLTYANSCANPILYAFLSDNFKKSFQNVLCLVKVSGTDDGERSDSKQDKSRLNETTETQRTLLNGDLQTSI
T1 sequence (P30874 whole entry): as above
Chain of SSTR5 (P35346 whole entry): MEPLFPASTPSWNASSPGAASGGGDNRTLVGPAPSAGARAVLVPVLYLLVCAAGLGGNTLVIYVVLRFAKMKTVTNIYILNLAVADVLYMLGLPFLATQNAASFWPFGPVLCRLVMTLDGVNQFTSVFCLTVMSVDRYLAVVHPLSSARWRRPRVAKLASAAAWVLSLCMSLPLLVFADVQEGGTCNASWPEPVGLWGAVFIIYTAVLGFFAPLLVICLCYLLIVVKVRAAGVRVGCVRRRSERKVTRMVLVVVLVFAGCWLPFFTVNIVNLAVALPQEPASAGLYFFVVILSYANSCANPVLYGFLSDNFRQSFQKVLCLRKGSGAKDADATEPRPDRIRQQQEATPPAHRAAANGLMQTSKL
T2 sequence (P35346 whole entry): as above

CSCC[C@@H]1NC(=O)[C@H]([C@@H](C)O)NC(=O)[C@H](CCCCN)NC(=O)[C@@H](Cc2c[nH]c3ccccc23)NC(=O)[C@@H]2CSCN2C(=O)[C@H](Cc2ccccc2)NC1=O [P2297, cyclo[ThioPro-DTrp-Lys-Thr-Met-Phe]] (cyclo([Thz][dW]KTMF))
IC50 [1]: 12.8 nM | IC50 [2]: 34.5 nM | Ratio 2/5 in % [2]: 37.1%

CSCC[C@@H]1NC(=O)[C@H]([C@@H](C)O)NC(=O)[C@H](CCCCN)NC(=O)[C@@H](Cc2c[nH]c3ccccc23)NC(=O)[C@H](Cc2cccc3ccccc23)NC(=O)[C@H](Cc2ccccc2)N(C)C1=O [P2278, cyclo[(1)Nal-DTrp-Lys-Thr-Met-(NMe)Phe]] (cyclo([1Nal][dW]KTM[NMeF]))
IC50 [1]: 0.444 nM | IC50 [2]: 1.59 nM | Ratio 2/5 in % [2]: 27.9%

B1: P2045 (peptide)
peptide 1: Y[dW]KTF[NMehCys]
peptide 2: [βDpr][Phe(4-NH2)]CTS-OH
modifications: thioether I:6-II:1 via CH2CO; also: head-to-tail to a chain's N/C-terminus
notes: also called cyclo[Tyr-DTrp-Lys-Thr-Phe-(NMe)hCys]-CH2CO-βDpr-Phe(4-NH2)-Cys-Thr-Ser-OH
IC50 [3]: 0.21 nM | Ratio 2/5 in % [4]: 0.084% | IC50 [5]: 249 nM

B2: P2323 (peptide)
peptide: cyclo([1Nal][dW]KTK(GlyMeDOTA)[NMeF])
notes: Cyclic hexapeptide carrying a DOTA chelator on Lys 5; also called cyclo[1Nal-DTrp-Lys-Thr-Lys(GlyMeDOTA)-(N-Me)Phe]
IC50 [6]: 9.37 nM | IC50 [7]: 37.4 nM | Ratio 2/5 in % [8]: 399%

B3: P2300 (peptide)
peptide: cyclo(Y[dW]K[βAla(cyclopropyl)]M[NMeF])
notes: Cyclic hexapeptide; also called cyclo[Tyr-DTrp-Lys-BAla(cyclopropyl)-Met-(N-Me)Phe]
IC50 [6]: 20.7 nM | IC50 [7]: 0.198 nM | Ratio 2/5 in % [8]: 0.96%

B4: P2267 (peptide)
peptide: cyclo(Y[dW]K[Dap]M[NMeF])
SMILES: CSCC[C@@H]1NC(=O)[C@H](CN)NC(=O)[C@H](CCCCN)NC(=O)[C@@H](Cc2c[nH]c3ccccc23)NC(=O)[C@H](Cc2ccc(O)cc2)NC(=O)[C@H](Cc2ccccc2)N(C)C1=O
notes: Cyclic hexapeptide; also called cyclo[Tyr-DTrp-Lys-Dpr-Met-(NMe)Phe]
IC50 [6]: 25.9 nM | IC50 [7]: 0.501 nM | Ratio 2/5 in % [8]: 1.9%

B5: P2274 (peptide)
peptide: cyclo(Y[dW]KTM[Tpi])
SMILES: CSCC[C@@H]1NC(=O)[C@H]([C@@H](C)O)NC(=O)[C@H](CCCCN)NC(=O)[C@@H](Cc2c[nH]c3ccccc23)NC(=O)[C@H](Cc2ccc(O)cc2)NC(=O)[C@@H]2Cc3c([nH]c4ccccc34)CN2C1=O
notes: Cyclic hexapeptide; also called cyclo[Tyr-DTrp-Lys-Thr-Met-Tpi]
IC50 [6]: 19.9 nM | IC50 [7]: 1.22 nM | Ratio 2/5 in % [8]: 6.1%

B6: P1839 (peptide)
peptide: cyclo(Y[dW]KTF[NMehCys])
SMILES: C[C@@H](O)[C@@H]1NC(=O)[C@H](CCCCN)NC(=O)[C@@H](Cc2c[nH]c3ccccc23)NC(=O)[C@H](Cc2ccc(O)cc2)NC(=O)[C@H](CCS)N(C)C(=O)[C@H](Cc2ccccc2)NC1=O
notes: Known somatostatin analogue tested as comparison; also called cyclo[Tyr-DTrp-Lys-Thr-Phe-(NMe)hCys]
Ratio 2/5 in % [4]: 0.15%

B7: ReP2045 (peptide)
peptide 1: Y[dW]KTF[NMehCys]
peptide 2: [βDpr][Phe(4-NH2)]CTS-OH
modifications: thioether I:6-II:1 via CH2CO; not fully specified; also: head-to-tail to a chain's N/C-terminus
notes: also called cyclo[Tyr-DTrp-Lys-Thr-Phe-(NMe)hCys]-CH2CO-βDpr-Phe(4-NH2)-Cys-Thr-Ser-OH-[R = 0]
IC50 [3]: 0.089 nM | Ratio 2/5 in % [4]: 0.014% | IC50 [5]: 627 nM

B8: P2269 (peptide)
peptide: cyclo(W[dW]KTM[NMeF])
SMILES: CSCC[C@@H]1NC(=O)[C@H]([C@@H](C)O)NC(=O)[C@H](CCCCN)NC(=O)[C@@H](Cc2c[nH]c3ccccc23)NC(=O)[C@H](Cc2c[nH]c3ccccc23)NC(=O)[C@H](Cc2ccccc2)N(C)C1=O
notes: also called cyclo[Trp-DTrp-Lys-Thr-Met-(NMe)Phe]
IC50 [6]: 3.27 nM | IC50 [7]: 0.501 nM | Ratio 2/5 in % [8]: 15.3%
